Article PMC4876015 (Structure (London, England : 1993), 2016)

Key:
[1] = target: the molecule itself; assay: SDS-PAGE of the folded channel
crystal structure = target: the molecule itself; assay: crystal structure

B1: KcsA V76ester channel (semisynthetic, full length) (natural protein, UniProt P0A334 1-160, looked up)
chain: MPPMLSGLLARLVKLLLGRHGSALHWRAAGAATVLLVIVLLAGSYLAVLAERGAPGAQLITYPRALWWACETATTVGYGDLCPVTLWGRLVAVVVMVAGITSFGLVTAALATWFVGREQERRGHFVRHSEKAAEEAYTRTTRALHERFDRLERMLDDNRR
modifications: peptide bond between residues 75 and 76 (Thr75-Val76, the 4' amide bond) replaced with an ester linkage
[1]
  stoichiometry N: 4

B2: KcsA V76ester channel, truncated for crystallization (domain or fragment, UniProt P0A334 1-125, looked up)
chain: MPPMLSGLLARLVKLLLGRHGSALHWRAAGAATVLLVIVLLAGSYLAVLAERGAPGAQLITYPRALWWACETATTVGYGDLCPVTLWGRLVAVVVMVAGITSFGLVTAALATWFVGREQERRGHF
modifications: peptide bond between residues 75 and 76 (Thr75-Val76, the 4' amide bond) replaced with an ester linkage
Crystal structure
  binding result: binds
